From patent publication US20110123544A1 (published 2011)

T1: recombinant human interleukin 12 (p40/p35 heterodimer) (human, UniProt P29460 23-328; P29459 23-219)
T1 chain 1: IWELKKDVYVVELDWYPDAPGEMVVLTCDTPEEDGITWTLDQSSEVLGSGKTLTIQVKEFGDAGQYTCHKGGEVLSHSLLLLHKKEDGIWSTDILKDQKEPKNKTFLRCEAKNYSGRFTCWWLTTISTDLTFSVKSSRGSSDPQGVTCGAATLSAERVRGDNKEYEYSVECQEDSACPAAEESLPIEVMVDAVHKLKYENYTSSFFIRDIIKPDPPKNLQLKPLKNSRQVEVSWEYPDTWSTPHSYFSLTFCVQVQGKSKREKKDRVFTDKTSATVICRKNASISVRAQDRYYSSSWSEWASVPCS
T1 chain 2: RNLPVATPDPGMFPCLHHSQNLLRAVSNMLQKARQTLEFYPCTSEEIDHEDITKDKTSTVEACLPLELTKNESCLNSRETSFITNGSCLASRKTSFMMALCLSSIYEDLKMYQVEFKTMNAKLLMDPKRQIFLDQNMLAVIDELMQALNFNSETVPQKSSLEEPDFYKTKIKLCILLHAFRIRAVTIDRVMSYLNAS


Target: T1, recombinant human interleukin 12 …
Assay: BIAcore

Binder	koff
FTFWSYGMH [Y61 H30 W]	0.000216 s⁻¹
FTFSSYNMH [Y61 H33 N]	0.000308 s⁻¹
FTFISYGMH [Y61 H30 I]	0.000207 s⁻¹
FTFSIYGMH [Y61 H31 I]	0.000334 s⁻¹
FTFGSYGMH [Y61 H30 G]	0.000233 s⁻¹
FTFTSYGMH [Y61 H30 T]	0.00032 s⁻¹
FTFVSYGMH [Y61 H30 V]	0.000399 s⁻¹
FTFSSYAMH [Y61 H33 A]	0.000273 s⁻¹
FTFSSYPMH [Y61 H33 P]	0.0016 s⁻¹
FTFSSIGMH [Y61 H32 I]	0.00161 s⁻¹
FTFSSYDMH [Y61 H33 D]	0.00152 s⁻¹
FTFSNYGMH [Y61 H31 N]	0.000191 s⁻¹
FTFSSRGMH [Y61 H32 R]	0.00449 s⁻¹
FTFSSHGMH [Y61 H32 H]	0.000461 s⁻¹
FTFSYYGMH [Y61 H31 Y]	0.000398 s⁻¹
FTFSSTGMH [Y61 H32 T]	0.00148 s⁻¹
FTFKSYGMH [Y61 H30 K]	0.000225 s⁻¹
FTFSSNGMH [Y61 H32 N]	0.00297 s⁻¹
FTFRSYGMH [Y61 H30 R]	0.000245 s⁻¹
FTFSSYSMH [Y61 H33 S]	0.000399 s⁻¹
FTFSSLGMH [Y61 H32 L]	0.00226 s⁻¹
FTFHSYGMH [Y61 H30 H]	0.000296 s⁻¹
FTFSSCGMH [Y61 H32 C]	0.00383 s⁻¹
FTFYSYGMH [Y61 H30 Y]	0.000319 s⁻¹

Target: T1, recombinant human interleukin 12 …
Assay: BIAcore
Remark: another data set of the same source

Binder	koff
FIRYYGSNKYYADSVKG [Y61 H53 Y]	0.000611 s⁻¹
FIRYSGSNKYYADSVKG [Y61 H53 S]	0.000368 s⁻¹
CIRYDGSNKYYADSVKG [Y61 H50 C]	0.000285 s⁻¹
FISYDGSNKYYADSVKG [Y61 H52 S]	0.000292 s⁻¹
FIRYTGSNKYYADSVKG [Y61 H53 T]	0.0005 s⁻¹
FIRYDYSNKYYADSVKG [Y61 H54 Y]	0.000646 s⁻¹
QIRYDGSNKYYADSVKG [Y61 H50 Q]	0.00042 s⁻¹
FIWYDGSNKYYADSVKG [Y61 H52 W]	0.000351 s⁻¹
LIRYDGSNKYYADSVKG [Y61 H50 L]	0.00044 s⁻¹
FIRYNGSNKYYADSVKG [Y61 H53 N]	0.000727 s⁻¹
FIRYLGSNKYYADSVKG [Y61 H53 L]	0.0011 s⁻¹
FIRYDNSNKYYADSVKG [Y61 H54 N]	0.000447 s⁻¹
FIRYDQSNKYYADSVKG [Y61 H54 Q]	0.000316 s⁻¹
FITYDGSNKYYADSVKG [Y61 H52 T]	0.000374 s⁻¹
FIRYQGSNKYYADSVKG [Y61 H53 Q]	0.000792 s⁻¹
FIRYDESNKYYADSVKG [Y61 H54 E]	0.000351 s⁻¹
YIRYDGSNKYYADSVKG [Y61 H50 Y]	0.00023 s⁻¹
KIRYDGSNKYYADSVKG [Y61 H50 K]	0.000612 s⁻¹
FIEYDGSNKYYADSVKG [Y61 H52 E]	0.000318 s⁻¹
FIRYDKSNKYYADSVKG [Y61 H54 K]	0.000407 s⁻¹
TIRYDGSNKYYADSVKG [Y61 H50 T]	0.000205 s⁻¹
FIRYDTSNKYYADSVKG [Y61 H54 T]	0.000644 s⁻¹

Binder	koff
FIRYKGSNKYYADSVKG [Y61 H53 K]	0.00158 s⁻¹
EIRYDGSNKYYADSVKG [Y61 H50 E]	0.000347 s⁻¹
NIRYDGSNKYYADSVKG [Y61 H50 N]	0.000344 s⁻¹
FIAYDGSNKYYADSVKG [Y61 H52 A]	0.000171 s⁻¹
FIQYDGSNKYYADSVKG [Y61 H52 Q]	0.000285 s⁻¹
FIRYDRSNKYYADSVKG [Y61 H54 R]	2.5e-05 s⁻¹
FILYDGSNKYYADSVKG [Y61 H52 L]	0.000347 s⁻¹
FIYYDGSNKYYADSVKG [Y61 H52 Y]	0.000298 s⁻¹
FIKYDGSNKYYADSVKG [Y61 H52 K]	0.000262 s⁻¹
FIRYDDSNKYYADSVKG [Y61 H54 D]	0.000455 s⁻¹
FIRYFGSNKYYADSVKG [Y61 H53 F]	0.00169 s⁻¹
FIRYVGSNKYYADSVKG [Y61 H53 V]	0.00044 s⁻¹
FIRYEGSNKYYADSVKG [Y61 H53 E]	0.000399 s⁻¹
FIRYDVSNKYYADSVKG [Y61 H54 V]	0.000435 s⁻¹
FIGYDGSNKYYADSVKG [Y61 H52 G]	0.000321 s⁻¹
FIRYDSSNKYYADSVKG [Y61 H54 S]	0.000373 s⁻¹
FIRYRGSNKYYADSVKG [Y61 H53 R]	0.00167 s⁻¹
FIRYIGSNKYYADSVKG [Y61 H53 I]	0.000944 s⁻¹
HIRYDGSNKYYADSVKG [Y61 H50 H]	0.000309 s⁻¹
FIHYDGSNKYYADSVKG [Y61 H52 H]	0.000407 s⁻¹
FIVYDGSNKYYADSVKG [Y61 H52 V]	0.000317 s⁻¹
FIRYAGSNKYYADSVKG [Y61 H53 A]	0.000404 s⁻¹
